Reference: patent US20040115188A1, “Enzyme with proteolytic activity” (priority 2000, published 2004)
“Also recorded” adds a separate entry of the source.

B1: Pra1: enzyme derived from T. harzianum with proteolytic activity, trypsin type serine-endopeptidase, amino acid sequence SEQ. ID. NO.: 1 (protein, listed as Trichoderma harzianum)
chain: MAPVLAIASVLAALPALTMGAAITPRGSDIVGGTTAALGEFPYIVSLSTGGSHFCGGVLIDSRTVVTAGHCTIDQRASSVKVRAGTLTWASGGTQVGVSSLTLHPSYTVDSQGVPDNDVGVWHLATAIPTSSTIGYATLPASGSDPAAGTTLTVAGWGTTSENSNSLPSTLRKVSVPVVARATCDSDYDGEISNNMFCAAVAAGGKDSCSGDSGGPIIDPSGTLVGVVSWGQGCAERGFPGVYTRLGNYVSFINSNRG

How the values were obtained:
Pra1 = test: Inhibition of proteolytic activity of Pra1 by specific inhibitors; format: biochemical, T. harzianum; details: 1 mM inhibitor, preincubation 30 minutes at 30° C., pH 7.5
Experimental: In order to determine the catalytic type to which Pra1 belongs, specific inhibitors were used of the different known catalytic mechanisms. The effect of said inhibitors on the activity of Pra1 was analysed by preincubating the enzymatic solution for 30 minutes at 30° C. in 100 mM phosphate buffer pH 7.5 with said specific inhibitors of different known catalytic mechanisms:
1 mM PMSF (100 mM initial solution in isopropanol),
1 mM EDTA (100 mM initial solution in water),
0.1 mM Pepstatin (10 mM initial solution in DMSO),
1 mM Iodoacetamide (100 mM initial solution in water, prepared at the time of use).
In parallel to the enzymatic assay, controls were also performed in the presence of organic solvent in which the inhibitor was dissolved. The residual activity was determined by the percentage of activity in absence of inhibitor.

[1] = Isoelectric point by chromatofocussing; format: physicochemical; details: observed
Experimental: The purification of enzymes with proteolytic activity obtained from the protocol described in Example 1 was performed from the culture filtrate of T. harzianum CECT 2413 kept for 48 hours in a MM medium with cell walls of C. acutatum as the carbon source. To do this, 2 ml of filtrate dialysed and concentrated 75 times were submitted to chromatofocussing to separate proteins on the basis of their isoelectric point. The elution profiles obtained show two peaks of proteolytic activity on azocasein, one eluted at basic pH, coinciding with the main protein peak, and another at acid pH.

[2] = Effect of temperature on the activity of Pra1; format: biochemical
Experimental: In order to determine the optimum temperature for activity of Pra1, the enzymatic assay was performed over a range of temperatures comprised between 30° C. and 85° C. The effect of temperature on the stability of Pra1 was determined by preincubating the enzymatic solution in 100 mM sodium phosphate buffer pH 7.5 for 20 minutes at different temperatures (30-85° C.). The substrate used in these assays was the synthetic peptide N-acetyl-Ile-Glu-Ala-Arg-pNA, specific for trypsins.

[3] = format: physicochemical; details: preincubation 24 hours at 4° C.
Experimental: (§1) For the determination of the optimum pH for activity of Pra1, the assay was carried out in the following buffer systems: 100 mM sodium acetate (pH 3-5.5), 100 mM sodium phosphate (pH 6-7), and 100 mM Tris/HCl (pH 7.5-9). The effect of pH on the stability of Pra1 was determined by pre-incubating the enzymatic solution (750 ng) for 24 hours at 4° C. in […] of the aforementioned buffers. Then, aliquots of 10 μl were taken for performing the assay in standard conditions.
The activity decreased as the pH of preincubation increased, with a reduction of 40% at pH 7.

[4] = Endopeptidase activity on synthetic peptide substrate for trypsins; format: biochemical; details: optimum conditions of activity (30° C. and pH 7.5); 1 U = 1 nmol p-NA per minute
Experimental: (§2) Taking into account the information obtained in Example 3.2, the endopeptidase activity of Pra1 on 3 synthetic peptides (Sigma) is assayed with the amino and carboxyl terminals blocked, with allows the different types of activities to be differentiated within the S1 family of peptidases:
N-acetyl-Ile-Glu-Ala-Arg-pNA (Arg-pNA) for trypsins,
(§3) The enzymatic solution (75 ng) was prepared in 90 μl of 100 mM sodium phosphate buffer and preincubated for 5 minutes at 30° C. The reactions were initiated by addition of 10 μl of preheated 10 mM substrate solution (prepared from 100 mM solutions in DMSO stored at −20° C.). After 20 minutes of incubation, the reactions were stopped by addition of 50 μl of 2% (v/v) acetic acid. Then, the absorbance of 100 μl at 405 nm was measured in microtitre plates with 96 wells (Inmunoplate Maxisorp, NUNC) using a Titertek Multiskan Plus 311 A0 (Flow Laboratories) automatic reader, and the nmoles of p-nitroaniline (p-NA) released per minute were calculated. In parallel, enzyme blanks with no substrate and substrate without enzyme were also processed. The standard calibration line was constructed with solutions of para-nitroanaline (p-NA) (Sigma) at known concentrations (0-1.25 mM) prepared from an initial 5 mM solution. This solution was prepared by dissolving p-NA beforehand in a minimum volume of ethanol.

[5] = Endopeptidase activity on synthetic peptide substrate for chymotrypsins/subtilisins; format: biochemical; details: 1 mM substrate, 30° C., 20 minutes
Experimental: as §2
N-succinyl-Ala-Ala-Pro-Phe-pNA (Phe-pNA) for chymotrypsins/subtilisins (this latter belongs to the S8 family).
as §3, with “This solution was prepared by dissolving p-NA beforehand in a minimum volume of ethanol.” left out

[6] = Determination of kinetic parameters Km, Kcat, Kcat/Km (Lineweaver-Burk); format: biochemical; details: Arg-pNA 0.05-2 mM, 30° C., pH 7.5
Experimental: The determination of the kinetic parameters Km, Kcat, and Kcat/Km was performed from the initial rates calculated in assays with different concentrations of substrate (0.05-2 mM). For this, the substrate was prepared in 0.99 ml of 100 mM sodium phosphate buffer pH 7.5 and preincubated at 30° C. Then the reaction was started by the addition of 10 μl of the purified proteases Pra1 (2.5 ppm) preheated to the same temperature. The activity was monitored for 10 minutes in a Shimadzu UV-160A spectrophotometer at 405 nm kept at 30 ? C by a thermostatA unit of activity represented the release of one 1 nmol of p-NA per minute in the assay conditions. Solutions of enzymes without substrate, and substrate without enzyme were prepared as blanks. The standard calibration curve was constructed with solutions of p-NA (Sigma) at known concentrations (0-200 μM), prepared as indicated above. The kinetic parameters were calculated from representations of double reciprocals or by Lineweaver-Burk (1/V vs 1/S).

[7] = Effect of pH on the activity of Pra1; format: biochemical
Experimental: as §1

[8] = Endopeptidase activity on synthetic peptide substrate for elastases; format: biochemical; details: 1 mM substrate, 30° C., 20 minutes
Experimental: as §2
N-succinyl-Ala-Ala-Pro-Leu-pNA (Leu-pNA) for elastases, and
as §3

Row | Molecule | effect on the lytic activity of Pra1 (Pra1) | isoelectric point (Ip) [1] | activity at 30° C. ([2]; 30° C.) [%] | activity at 45° C. ([2]; 45° C.) [%] | activity above 55° C. ([2]; above 55° C.) | optimum temperature for activity ([2]; pH 7.5) [°C] | reduction of activity after preincubation at pH 7 ([3]; pH 7) [%] | proteolytic activity after preincubation at pH 9 ([3]; pH 9) | specific activity on Arg-pNA [4] | lytic activity on Phe-pNA (chymotrypsin/subtilisin activity) [5] | Kcat [6] [s⁻¹] | Km [6] [µM] | optimum pH for activity [7] | activity in buffers with pH greater than 8.5 or less than 6.5 ([7]; pH greater than 8.5 or less than 6.5) | lytic activity on Leu-pNA (elastase activity) [8]
1 | O=S(=O)(F)Cc1ccccc1 [PMSF] | drastically inhibited |  |  |  |  |  |  |  |  |  |  |  |  |  | 
2 | NC(=O)CI [iodoacetamide, Iodoacetamide] | weak effect |  |  |  |  |  |  |  |  |  |  |  |  |  | 
3 | B1 |  | 4.7-4.9 | 95 | 16 | no activity was detected | ~35 | 40 | No proteolytic activity was detected | 94,800 U/mg | No lytic activity; also recorded: does not have activity | 39.64 | 220 | 7.5 | decreased rapidly | No lytic activity; also recorded: does not have activity
